Source: patent publication US10925971B2, “Methods of treating PRLR positive breast cancer” (Regeneron Pharmaceuticals, Inc., priority 2016, dated 2021)

T1: monkey PRLR on HEK293/mfPRLR cells (Macaca fascicularis, UniProt A0A2K5WXK1)
T1 construct: HA; expressed in transfected cells; host or cells: HEK293
T1 sequence (A0A2K5WXK1 25-619): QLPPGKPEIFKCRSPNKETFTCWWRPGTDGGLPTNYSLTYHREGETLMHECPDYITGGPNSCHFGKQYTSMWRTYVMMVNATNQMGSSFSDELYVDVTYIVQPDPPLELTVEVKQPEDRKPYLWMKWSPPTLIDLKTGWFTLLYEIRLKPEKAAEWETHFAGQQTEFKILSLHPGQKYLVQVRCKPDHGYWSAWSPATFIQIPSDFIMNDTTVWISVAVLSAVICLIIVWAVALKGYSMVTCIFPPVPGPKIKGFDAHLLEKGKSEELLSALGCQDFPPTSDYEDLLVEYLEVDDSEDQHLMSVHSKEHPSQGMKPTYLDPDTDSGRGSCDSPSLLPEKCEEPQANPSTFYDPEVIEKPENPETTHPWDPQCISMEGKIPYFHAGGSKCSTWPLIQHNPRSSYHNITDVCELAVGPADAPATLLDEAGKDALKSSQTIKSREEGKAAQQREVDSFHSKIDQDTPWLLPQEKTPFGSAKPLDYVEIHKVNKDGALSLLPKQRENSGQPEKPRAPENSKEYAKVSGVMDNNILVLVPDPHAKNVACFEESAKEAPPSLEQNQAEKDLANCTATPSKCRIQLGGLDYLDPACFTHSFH

T2: mouse PRLR on HEK293/mPRLR cells (Mus musculus, UniProt Q08501)
T2 construct: HA; expressed in transfected cells; host or cells: HEK293
T2 sequence (Q08501 20-608): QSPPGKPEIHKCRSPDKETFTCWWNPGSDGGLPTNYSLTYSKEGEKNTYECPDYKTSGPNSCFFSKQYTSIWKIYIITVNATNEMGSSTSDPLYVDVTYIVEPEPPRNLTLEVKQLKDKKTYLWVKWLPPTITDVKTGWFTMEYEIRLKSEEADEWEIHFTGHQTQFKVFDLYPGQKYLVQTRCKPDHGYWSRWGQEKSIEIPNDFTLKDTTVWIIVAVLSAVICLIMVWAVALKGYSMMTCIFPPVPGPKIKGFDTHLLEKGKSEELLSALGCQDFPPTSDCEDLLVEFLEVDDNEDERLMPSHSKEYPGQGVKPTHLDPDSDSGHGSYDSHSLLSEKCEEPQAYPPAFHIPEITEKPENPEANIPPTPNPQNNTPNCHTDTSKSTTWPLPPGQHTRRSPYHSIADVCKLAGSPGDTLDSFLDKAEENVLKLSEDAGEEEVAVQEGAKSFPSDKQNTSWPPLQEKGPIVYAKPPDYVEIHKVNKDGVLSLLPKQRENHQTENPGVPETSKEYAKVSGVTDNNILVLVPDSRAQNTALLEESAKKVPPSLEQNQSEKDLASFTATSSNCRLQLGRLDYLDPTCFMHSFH

T3: human PRLR on HEK293/hPRLR cells (Homo sapiens, UniProt P16471)
T3 construct: HA; expressed in transfected cells; host or cells: HEK293
T3 sequence (P16471 25-622): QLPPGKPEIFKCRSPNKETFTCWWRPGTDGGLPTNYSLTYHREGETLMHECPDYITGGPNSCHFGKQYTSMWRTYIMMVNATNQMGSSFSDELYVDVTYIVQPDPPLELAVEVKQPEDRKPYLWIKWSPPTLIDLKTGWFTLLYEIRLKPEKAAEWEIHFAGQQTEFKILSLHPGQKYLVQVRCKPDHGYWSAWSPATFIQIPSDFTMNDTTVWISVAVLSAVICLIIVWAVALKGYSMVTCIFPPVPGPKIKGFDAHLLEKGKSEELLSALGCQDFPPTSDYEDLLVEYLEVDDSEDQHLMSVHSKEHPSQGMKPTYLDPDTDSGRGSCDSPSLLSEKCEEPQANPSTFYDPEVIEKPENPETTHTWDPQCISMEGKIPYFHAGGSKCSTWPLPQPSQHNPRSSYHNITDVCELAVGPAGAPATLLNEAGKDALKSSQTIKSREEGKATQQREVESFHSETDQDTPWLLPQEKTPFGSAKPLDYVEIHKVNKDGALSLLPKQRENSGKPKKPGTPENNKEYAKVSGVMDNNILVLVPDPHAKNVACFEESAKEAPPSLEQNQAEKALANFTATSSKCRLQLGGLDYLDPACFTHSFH


Columns and labels:
Experiment in all cases: FACS cell surface binding
[1] = biological target: T1, monkey PRLR on HEK293/mfPRLR cells
Method in brief: (§1)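 Flow cytometry: 1×10^5 cells/sample; primary Ab 10 μg/ml, 30 min on ice; 2 washes; PE anti-human 2° 10 μg/ml, 30 min on ice. Cells were HEK293 stably expressing HA-tagged PRLR of the given species, or untransfected HEK293. Readout was MFI fold over isotype.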

[2] = biological target: T2, mouse PRLR on HEK293/mPRLR cells
Method in brief: as §1

[3] = biological target: T3, human PRLR on HEK293/hPRLR cells
Method in brief: as §1

HEK293 parental cells = test system: HEK293 parental cells; set-up: species or system human
Method in brief: as §1

Molecule	FACS Cell Binding [1] [Fold Above Background]	FACS Cell Binding [2] [Fold Above Background]	FACS Cell Binding [3] [Fold Above Background]	FACS Cell Binding (HEK293 parental cells) [Fold Above Background]
H1H6795P: fully human anti-PRLR antibody, human IgG1 Fc; HCVR/LCVR SEQ ID NOs 162/170 (antibody, V domains shown) VH: QVQLVQSGAEVKKPGASVKVSCKASGYTFGTSGITWVRQAPGQGLEWMGWSSAYNGKTDYAQKFQDRVTMTTDTSTTTGYMEMRSLTSDDTAVYYCTTVVRRPFDFWGQGTLVTVSS VL: DIQMTQSPSSLSASVGDRVTITCRASQDINNFLAWFQQKPGKAPKSLIYAASSLQSGVPSKFSGGGSGTDFALTISSLQPEDFATYYCQQYSSYPITFGQGTRLEIK	22	1	1	1
H1H6774P: fully human anti-PRLR antibody, human IgG1 Fc; HCVR/LCVR SEQ ID NOs 34/42 (antibody, V domains shown) VH: EVQLVESGGGLAQPGGSLRLSCVASGFTFSTYWMSWVRQAPGKGLDWVGNIKQDGSEQNYVDSVRGRFTISRDNAKNSLFLQMNSLRAEDTGVYYCATLLTKGDYWGQGTLVTVSS VL: DIQMTQSPSSLSASVGDSVTITCRASQDISNYLDWFQQKPGKAPKSLIYAASILQGGVPSRFSGSGYGTDFTLTISSLQPEDFATYYCRQYKTYPFTFGPGTKVDIK	29	1	1	1
H1H6797P: fully human anti-PRLR antibody, human IgG1 Fc; HCVR/LCVR SEQ ID NOs 178/186 (antibody, V domains shown) VH: EVQLVESGGGLVQPGGSLRLSCIVSGFTFSGSWMSWVRQLPGKGLEWVANIKEDGSDSYYVDSVEGRFTISRDNAKSSLYLQMNSLRVDDTAVYFCARARTVPLHYWGQGTLVTVSS VL: DIQMTQSPSTLSASVGDRVTITCRASQSINIWLAWYQQKPGKAPKLLIYRASYLESGVPSSFAGGGSGTEFTLTISSLQPDDFGTYYCQHYNSYPFTFGQGTKLEIK	25	2	1	1
H1H6975N: anti-PRLR antibody, human IgG1 Fc form of H2M6975N of Table 1; HCVR/LCVR SEQ ID NOs 370/378 (antibody, V domains shown, human IgG1 Fc) VH: EVHLVESGGGLVQPGGSLRLSCAASGFTFSSYEMNWVRQTPGKGLEWISHISSRSVIIYYADSVKGRFTISRDNAKNSLFLQMNSLRAEDTAVYFCAGITIFGIPEYWGQGTLVTVSS VL: EIVLTQSPATLSLSPGERATLSCRASQSVSSYFAWYQQKPGQAPRLLIYDASSRATGIPTRFSGSGSGTDFTLTISSLEPEDFAVYYCQQRSSWPITFGQGTRLEIK	29	1	38	1
H1H6953N: anti-PRLR antibody, human IgG1 Fc form of H1M6953N of Table 1; HCVR/LCVR SEQ ID NOs 274/282 (antibody, V domains shown) VH: EVQLLESGGGLVQPGGTLRLSCAASGFTFSAYAMSWVRQAPGKGLEWVSSINVRAGDTYYADSVKGRFTISRDNSKNTLFLLMNSLRAEDTAAYYCAKARYSSNWGFDFWGQGTLVTVSS VL: DIVMTQSPDSLTVSLGARTTINCQSSQTILHSSNNHNYLAWYQQKPGLPPKLLIYWSSTRESGVPDRFSGSGSGTDFTLTISSLQAEDVAIYYCQQYSNTPYTFGQGTKLEIN	29	2	37	2
H1H6958N2: anti-PRLR antibody, receptor blocking, human IgG1 Fc form of H2M6958N2 of Table 1; HCVR/LCVR SEQ ID NOs 290/298 (antibody, V domains shown) VH: QVQLVESGGGVVQPGRSLRLSCGASGFTFRNYGMQWVRQGPGKGLEWVTLISFDGNDKYYADSVKGRFTISRDNSKNTLFLQMNSLRTEDTAVYYCARGGDFDYWGQGTLVTVSS VL: DIQMTQSPSSLSASVGDRVTITCRASQDIRKDLGWYQQKPGKAPKRLIYAASSLHSGVPSRFSGSGSGTEFTLTISSLQPEDFATYYCLQHNSYPMYTFGQGTKLEIK	30	1	35	1
H1H6765P: fully human anti-PRLR antibody, human IgG1 Fc; HCVR/LCVR SEQ ID NOs 18/26 (antibody, V domains shown) VH: EVQLVESGGGVVRPGGSLRLSCVGSGFSFDDHGMNWVRQGPGKGLEWVSGFNWNGGSTNYAESVKGRFTISRDNARNSLFLQMNSLRAEDTALYYCVRGRSGWFNDAFDVWGPGTMVTVSS VL: EIVLTQSPGTLSLSPGERATLSCRASQTINSNYLAWYRQKPGQTPRLLIYGTSSRATGIPDRFSGSGSGTDFSLTISRLEPEDFAVFYCQQYAGLPTFGPGTKVDIK	27	1	38	2
H1H6782P: fully human anti-PRLR antibody, non-blocking; HCVR/LCVR SEQ ID NOs 66/74 (antibody, V domains shown) VH: EVQLVESGGGLVQPGRSLRLSCAASGFTFDDYAMHWVRQAPGKGLEWVSGIIWNSGHIGYGDSVKGRFTISRDNAKKSLYLQMNSLRAEDTALYYCARDSGRYQSYFDYWGQGTLVTVSS VL: DIQMTQSPSTLSASVGDRVTITCRASHIISSWLAWYQQKPGKAPKVLIFKASSLESGVPSRFSGSGSGTEFTLTISSLQPDDFATYYCQQYNTYSRTFGQGTKVEIK	32	4	41	3
